# Reference: US20110150888A1 (Amgen, published 2011)
# Where no end group is shown, it is not given here.
# T1: mouse hepcidin (mouse, UniProt Q9EQ21 59-83)
# T1 peptide (looked up): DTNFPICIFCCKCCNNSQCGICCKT
# B1: antibody 1S1 (antibody, human IgG2, kappa, V domains shown)
# VH: QVQLVQSGDEVKKPGASVKVSCKASGYTFIKYGISWVRQAPGQGLEWMGWIGAFNGNTDYARNLQARVTMTTDTSTSTAYMELRSLRSDDTAVYYCAREGWNDDYFSGLDVWGQGTTVTVSS
# VL: EIVLTQSPGTLSLSPGERATLSCRASQSVSSNYLAWYQQKPGQAPRLLIYGASSRATGIPDRFSGSGSGTDFTLIISRLEPEDFVVYYCQQYGSSLTFGGGTKVEIKR
# notes: Human antibody; also called Ab 1S1
# B2: antibody 23F11 (antibody, V domains shown)
# VH: QVQLQQSGPGLVKPSQTLSLTCAISGDSVSSNSAAWNWIRQSPSRGLEWLGRTYYRSKWFNDYAVSVQSRITINPDTSKNQFSLQLNSVTPEDTAVYYCARGIVFSYAMDVWGQGTTVTVSS
# VL: NFMLTQPHSVSESPGKTVTISCTRSSGSIASYYVQWYQQRPGSSPTTVIYEDSQRPSGVPDRFSGSIDSSSNSASLTISGLKTEDEADYYCQSYDSSNVVFGGGTKLTVL
# notes: Human antibody
# B3: human hepcidin (mature, 25 amino acids) (peptide)
# peptide: DTHFPICIFCCGCCHRSKCGMCCKT
# modifications: disulfide (positions not given here); also: mono-biotinylated in some assays, site not given here
# notes: the form is named in each assay field; also called rhuHepc; rhHepc
# B4: antibody 1S3 (antibody, human IgG2, lambda, V domains shown)
# VH: QVQLVESGGGVVQPGRSLRLSCAASGFTFSSYGMHWVRQAPGKGLEWVAVIWYAESNKYYADSVKGRFTISRDNSKNTLYLQMNSLRAEDTAVYYCARAQEGIAPDAFDIWGQGTMVTVSS
# VL: YELTQPPSVSVSPGQTATITCSGDKLGERYASWYQQRPGQSPVLVIYQDIKRPSGIPERFSGSNSGNTATLTISGTQAMDEADYFCQAWYSSTNVLFGGGTKLTVLG
# notes: Human antibody
# B5: murine antibody 2.7 (antibody, V domains shown)
# VH: QIQLVQSGPELKKPGETVKISCKASGYTFTTYGMSWVKQAPGKGLKWMGWINTYSGVPTYADDFKGRFAFSLETSASTAYLQINNLKNEDTATYFCGRDHYYGEVAYWGQGTLVTVSA
# VL: DIVLTQSPASLAVSLGQRATISCRASESVDSYGNSFMHWYQQKPGQPPKLLIYRASNLESGIPARFSGSGSRTDFTLTINPVEADDVATYYCHQSNEEYTFGGGTKLEIK
# notes: Murine monoclonal antibody; murine IgG1 was used as its isotypic control; also called Ab2.7; Ab 2.7
# B6: antibody 18B11 (antibody, V domains shown)
# VH: QVQLQQWGAGPLKPSETLSLTCAVYNGSFSGYYWSWIRQPPGKGLEWIGDINHSGNTKYNPSLKSRVTISVDTSKNQFSLKLSSVTAADTAVYYCARGDFWSGFDWFDPWGQGTLVTVSS
# VL: QSALTQPASVSGSPGQSITISCTGTSSNVGSYNLVSWYQQHPGKAPKLMISEVSKRPSGLSNRFSGSKSGNTASLTISGLQAEDEADYYCCSYAGSSTLIFGGGTKLTVL
# notes: Human antibody from Xenomouse IgG2 or IgG4 mice; also called 181311
# Columns and labels:
# [1] = target: B3; test: sandwich ELISA built from 1S1 and 23F11 (one curve for the pair of antibodies), hepcidin titrated; the axis gives hepcidin levels before a 50-fold pre-dilution
# murine antibody 2.7 [2] = target: B5; test: competitive binding assay, luminescence, standards in rabbit serum: unlabelled hepcidin against biotinylated human hepcidin (0.25 nM) for Ab2.7
# Procedure: (§1) Hepcidin levels were determined using hepcidin standards of varying concentrations (from 1.4-300 ng/ml) spiked into buffer (5% BSA:I-block), rabbit serum, or pooled human serum. Hepcidin was added to equal volumes of 40 ng/mL of Ab2.7 and incubated for 120 minutes. 25 μl/well of mixed solution was added to Black half area plates coated with 1-2 μg/mL G×M capture antibody. 25 μL/well of biotinylated hepcidin was added at 0.25 nM. The plate was covered with plate film sealer and incubated at room temperature (25° C.) on a plate shaker at around <200 RPM for around 60 minutes. The plate was washed and then 50 μL/well of Poly horseradish peroxidase amplification reagent at 1:2000 was added. The plate was allowed to sit for 30 minutes and was then washed with a plate washer using PBS or KPL buffer 6 times. The plate was patted dry and a luminescent substrate (Femto or Pico) was quickly added. The plate was read with luminometer (ex: Lmax 340) for 1 second using Femto or Pico Substrate. […] (FIG. 18).
# murine antibody 2.7 [3] = target: B5; test: competitive binding assay, luminescence, standards in buffer (5% BSA: I-block): unlabelled hepcidin against biotinylated human hepcidin (0.25 nM) for Ab2.7
# Procedure: as §1
# murine antibody 2.7 [4] = target: B5; test: competitive binding assay, luminescence, standards spiked into pooled human serum (endogenous hepcidin present, not counted on the axis): unlabelled hepcidin against biotinylated human hepcidin (0.25 nM) for Ab2.7
# Procedure: as §1
# [5] = target: B3; test: BIAcore, recombinant human hepcidin immobilised on a CM5 chip, 50 nM antibody bound at pH 7.4, dissociation buffers of pH 7.4, 6 and 5.5 (curves not labelled by pH)
# Procedure: (§2) Off-rate analysis of dissociation at different pHs was also performed. A slow off-rate is expected to predict increased binding interaction over a longer period of time, while a faster off-rate is expected to predict decreased binding interaction. For example, a faster off-rate at lower pH is expected to predict greater release of antigen at lower pH. Solution equilibrium binding analysis was performed using BIAcore to study the off-rates of antibodies 1S1, 1S3, 2.7, 18B11, 23F11 and 26F11 with recombinant human hepcidin (SEQ ID NO: 9).
# Immobilization of recombinant human hepcidin (rhuHepc) to a BIAcore sensor chip surface was performed according to manufacturer's instructions at a flow rate 10 μL/min of running buffer (DPBS: Dulbecco's Phosphate Buffer Salinel X, no CaCl or MgCl, with 0.005% Biacore surfactant P-20). The carboxylated matrix of the sensor chip was first activated with a 60 μL injection of a mixture containing 0.2 M EDC(N-ethyl-N-(dimethylamine-propyl)carbodiimide in water, from BIAcore) and 0.05M NHS (N-hydroxysuccinimide in water, from Biacore). 55 μL of recombinant human hepcidin (1 μg/ml in 10 mM Na-acetate pH4.0) was injected to immobilize onto the sensor chip. The excess reactive groups of the sensor chip were deactivated with an injection of 60 μL of ethanolamine (1.0M, from Biacore).
# After rhuHepc was immobilized on the CM5 chip with low density, 50 nM of antibodies 1S1, 1S3, 2.7, 18B11, 23F11 and 26F11 were injected over and bound the rhuHepc surface at pH 7.4. Dissociation buffers with pH 7.4, pH6 and pH 5.5 were run over the bound surface. The dissociation curves were obtained.
# mouse hepcidin = target: T1, mouse hepcidin; test: competition ELISA
# [6] = target: B3; test: KinExA solution equilibrium, human hepcidin-coated beads
# Procedure: SA-Sepharose beads were pre-coated with biotinylated human hepcidin (SEQ ID NO: 9) and blocked with BSA according to manufacturer's instructions. Antibodies and hepcidin were diluted in PBS/0.1% BSA/0.05% NaN₃ buffer. Fixed concentrations of antibodies 15E1, 15E1 W52H, 15E1 A99H, 15E1 N521-1, 15E1 A107H and 18B11 were incubated with various concentrations of human hepcidin at room temperature for 8 hours before being run through the human hepcidin-coated beads. The amount of the bead-bound antibody was quantified by fluorescently (Cy5)-labeled goat anti-murine-IgG (H+L) antibody (Jackson Immuno Research, West Grove, Pa.). The binding signal is proportional to the concentration of free antibody at equilibrium. Dissociation equilibrium constant (KD) was obtained from nonlinear regression of the competition curves using a dual-curve one-site homogeneous binding model (KinExATM Pro software).
# [7] = target: B3; test: antibody at 1:250 dilution; KinExA / BIAcore named in the paragraph
# [8] = target: B3; test: ELISA, mono-biotinylated human hepcidin on Neutravidin plate, pH 6.0
# Procedure: (§3) Differential pH binding of the antibodies listed above in Table 3 was then determined by ELISA. 50 μL of Neutravidin (Pierce) at 8 μg/mL in 1×PBS was coated upon a Nunc Maxisorp 384-well plate, and incubated at 37° C. for 1 hr. After blocking the wells with 0.1% BSA/PBS/0.05% Tween20 for 1 hour at room temperature, plates were washed six times with PBS/0.05% Tween20. 25 μL of mono-biotinylated hepcidin at 50 ng/mL in 0.1% BSA/PBS/0.05% Tween20 was added to the 384-well plate, and incubated at room temperature for 1 hour. The plates were next washed six times with PBS/0.05% Tween20. Starting hepcidin antibody concentrations were normalized to 1 μg/mL for pH 5.5 and 6.0 conditions and to 100 ng/mL for pH 7.4 conditions. The hepcidin antibodies were serially diluted 3-fold in PBS/1% NFDM pH 7.4 and 4-fold in PBS/1% NFDM pH 6.0 and 5.5. The dilutions and titrations were performed in polypropylene 96-well dilution plates, and then were transferred in duplicate to a Neutravidin-coated 384-well plate. The biotinylated hepcidin and antibodies were incubated for 2 hours at room temperature. The plate was next washed six times with PBS/0.05% Tween20. 25 μL it of goat anti-huIgG-horseradish peroxidase at a 1:7000 dilution in 0.1% BSA/PBS/0.05% Tween20 was next added to each well of the assay plate. The plate was finally washed six times in PBS/0.05% Tween20. Enhanced K-Blue 3,3′,5,5′-Tetramethylbenzidine (TMB) Substrate (Neogen) was added and the reaction stopped using 1 M H₃PO₄ after 10 minutes of incubation at room temperature. The absorption was measured at 450 nm on a plate reader. Binding data were analyzed by non-linear regression analysis (sigmoidal dose-response, variable slope) to generate EC₅₀ values using GraphPad Prism® software. […] Double combinations of these mutants were made.
# [9] = target: B3; test: ELISA, mono-biotinylated human hepcidin on Neutravidin plate, pH 7.4
# Procedure: as §3
# [10] = target: B3; test: BIAcore, rhuHepc immobilised on CM5 chip, dissociation buffers of pH 7.4, 6 and 5.5; dissociation buffer pH 7.4
# Procedure: as §2
# Immobilization of recombinant human hepcidin (rhuHepc) to a BIAcore sensor chip surface was performed according to manufacturer's instructions at a flow rate 10 μL/min of running buffer (DPBS: Dulbecco's Phosphate Buffer Salinel X, no CaCl or MgCl, with 0.005% Biacore surfactant P-20). The carboxylated matrix of the sensor chip was first activated with a 60 μL injection of a mixture containing 0.2 M EDC(N-ethyl-N-(dimethylamine-propyl)carbodiimide in water, from BIAcore) and 0.05M NHS (N-hydroxysuccinimide in water, from Biacore). 55 μL of recombinant human hepcidin (1 μg/ml in 10 mM Na-acetate pH4.0) was injected to immobilize onto the sensor chip. The excess reactive groups of the sensor chip were deactivated with an injection of 60 μL of ethanolamine (1.0M, from Biacore). […]
binder,measurement,setting,value
B1,EC50 (read off the curve),[1],~100 ng/mL
B2,EC50 (read off the curve),[1],~100 ng/mL
B3,IC50 (read off the curve),murine antibody 2.7 [2],~7 ng/mL
same,IC50 (read off the curve),murine antibody 2.7 [3],~8 ng/mL
same,IC50 (read off the curve),murine antibody 2.7 [4],~10 ng/mL
B4,binding result,[5],binds
B5,binding result,[5],binds
B6,binding result,mouse hepcidin,no binding
same,Kd,[6],7.4 nM
same,fold reduction in affinity at pH 6 compared to pH 7.4,[7],~10 fold
same,EC50,[8],244 ng/mL
same,EC50,[9],2.7 ng/mL
same,koff,[10],> 0.01 s⁻¹
